In patent US20060257938A1, “Method of screening for drugs that block ligand binding to a lipid binding protein” (priority 2005, published 2006):
“And” between values parts separate entries of the source, which are not always exact repeats. Identical values can stand only once.

What was measured:
Type in all cases: binding
Details in all cases: response relative to ADIFAB2
[1] = Probe fluorescence ratio response to oleic acid relative to ADIFAB2
In short: (§1)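 Fluorescently labeled rat intestinal FABP variants were read at two emission wavelengths, near the unbound maximum (about 420 to 480 nm) and the FFA-bound maximum (about 495 to 580 nm). R = Fλ1/Fλ2 after subtracting probe-free intensity; ΔR = R+agent − R0, normalized to ADIFAB2 (rI-FABP-L72A).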

[2] = Probe fluorescence ratio response to arachidonic acid relative to ADIFAB2
In short: as §1

[3] = Probe fluorescence ratio response to palmitic acid relative to ADIFAB2
In short: as §1

[4] = Probe fluorescence ratio response to linoleic acid relative to ADIFAB2
In short: as §1

[5] = Probe fluorescence ratio response to linolenic acid relative to ADIFAB2
In short: as §1

Molecule | DR/DR OA [1] | DR/DR AA ([2]; arachidonic acid) | DR/DR PA [3] | DR/DR LA [4] | DR/DR LNA [5] | DR/DR AA ([2]; Arachidonic acid)
36L, 72A wt (protein, listed as Rattus norvegicus, PEPTIDE (1)...(131) wild-type rat intestinal fatty acid binding protein) AFDGTWKVDRNENYEKFMEKMGINVVKRKLGAHDNLKLTITQEGNKFTVKESSNFRNIDVVFELGVDFAYSAADGTELTGTWTMEGNKLVGKFKRVDNGKELIAVREISGNELIQTYTYEGVEAKRIFKKE | 1.25 | 1.25 | 1.13 | 1.21 | 1.00 | –
36N, 72A (protein, listed as Rattus norvegicus, PEPTIDE (1)...(131) wild-type rat intestinal fatty acid binding protein) AFDGTWKVDRNENYEKFMEKMGINVVKRKLGAHDNNKLTITQEGNKFTVKESSNFRNIDVVFELGVDFAYSAADGTELTGTWTMEGNKLVGKFKRVDNGKELIAVREISGNELIQTYTYEGVEAKRIFKKE | 0.38 | 0.47 | 0.39 | 0.47 | 0.42 | –
38H1, 72A (protein, listed as Rattus norvegicus, PEPTIDE (1)...(131) wild-type rat intestinal fatty acid binding protein) AFDGTWKVDRNENYEKFMEKMGINVVKRKLGAHDNLKHTITQEGNKFTVKESSNFRNIDVVFELGVDFAYSAADGTELTGTWTMEGNKLVGKFKRVDNGKELIAVREISGNELIQTYTYEGVEAKRIFKKE | 1.16 | – | 0.74 | 1.25 | 1.19 | 1.24
36S, 72A (protein, listed as Rattus norvegicus, PEPTIDE (1)...(131) wild-type rat intestinal fatty acid binding protein) AFDGTWKVDRNENYEKFMEKMGINVVKRKLGAHDNSKLTITQEGNKFTVKESSNFRNIDVVFELGVDFAYSAADGTELTGTWTMEGNKLVGKFKRVDNGKELIAVREISGNELIQTYTYEGVEAKRIFKKE | 0.43 | 0.49 | 0.42 | 0.50 | 0.50 | –
36Q, 72A (protein, listed as Rattus norvegicus, PEPTIDE (1)...(131) wild-type rat intestinal fatty acid binding protein) AFDGTWKVDRNENYEKFMEKMGINVVKRKLGAHDNQKLTITQEGNKFTVKESSNFRNIDVVFELGVDFAYSAADGTELTGTWTMEGNKLVGKFKRVDNGKELIAVREISGNELIQTYTYEGVEAKRIFKKE | 1.12 and 0.792 | 1.20 and 0.837 | 0.81 and 0.777 | 1.26 and 0.927 | 1.28 and 0.880 | –
38E1, 72A (protein, listed as Rattus norvegicus, PEPTIDE (1)...(131) wild-type rat intestinal fatty acid binding protein) AFDGTWKVDRNENYEKFMEKMGINVVKRKLGAHDNLKETITQEGNKFTVKESSNFRNIDVVFELGVDFAYSAADGTELTGTWTMEGNKLVGKFKRVDNGKELIAVREISGNELIQTYTYEGVEAKRIFKKE | 0.54 | 0.57 | 0.31 | 0.59 | 0.29 | –
38N1, 72A (protein, listed as Rattus norvegicus, PEPTIDE (1)...(131) wild-type rat intestinal fatty acid binding protein) AFDGTWKVDRNENYEKFMEKMGINVVKRKLGAHDNLKNTITQEGNKFTVKESSNFRNIDVVFELGVDFAYSAADGTELTGTWTMEGNKLVGKFKRVDNGKELIAVREISGNELIQTYTYEGVEAKRIFKKE | 0.97 | – | 0.65 | 1.12 | 1.14 | 1.08
36M, 72A (protein, listed as Rattus norvegicus, PEPTIDE (1)...(131) wild-type rat intestinal fatty acid binding protein) AFDGTWKVDRNENYEKFMEKMGINVVKRKLGAHDNMKLTITQEGNKFTVKESSNFRNIDVVFELGVDFAYSAADGTELTGTWTMEGNKLVGKFKRVDNGKELIAVREISGNELIQTYTYEGVEAKRIFKKE | 1.12 | 1.23 | 0.97 | 1.10 | 1.08 | –
38A2, 72A (protein, listed as Rattus norvegicus, PEPTIDE (1)...(131) wild-type rat intestinal fatty acid binding protein) AFDGTWKVDRNENYEKFMEKMGINVVKRKLGAHDNLKATITQEGNKFTVKESSNFRNIDVVFELGVDFAYSAADGTELTGTWTMEGNKLVGKFKRVDNGKELIAVREISGNELIQTYTYEGVEAKRIFKKE | 1.26 | 1.23 | 0.68 | 1.31 | 1.30 | –
38K1, 72A (protein, listed as Rattus norvegicus, PEPTIDE (1)...(131) wild-type rat intestinal fatty acid binding protein) AFDGTWKVDRNENYEKFMEKMGINVVKRKLGAHDNLKKTITQEGNKFTVKESSNFRNIDVVFELGVDFAYSAADGTELTGTWTMEGNKLVGKFKRVDNGKELIAVREISGNELIQTYTYEGVEAKRIFKKE | 0.76 | – | 0.48 | 0.90 | 0.86 | 0.83
38G1, 72A (protein, listed as Rattus norvegicus, PEPTIDE (1)...(131) wild-type rat intestinal fatty acid binding protein) AFDGTWKVDRNENYEKFMEKMGINVVKRKLGAHDNLKGTITQEGNKFTVKESSNFRNIDVVFELGVDFAYSAADGTELTGTWTMEGNKLVGKFKRVDNGKELIAVREISGNELIQTYTYEGVEAKRIFKKE | 1.03 | – | 0.56 | 1.10 | 1.07 | 1.03
38F1, 72A (protein, listed as Rattus norvegicus, PEPTIDE (1)...(131) wild-type rat intestinal fatty acid binding protein) AFDGTWKVDRNENYEKFMEKMGINVVKRKLGAHDNLKFTITQEGNKFTVKESSNFRNIDVVFELGVDFAYSAADGTELTGTWTMEGNKLVGKFKRVDNGKELIAVREISGNELIQTYTYEGVEAKRIFKKE | 0.97 | 0.91 | 0.85 | 0.95 | 0.96 | –
36R, 72A (protein, listed as Rattus norvegicus, PEPTIDE (1)...(131) wild-type rat intestinal fatty acid binding protein) AFDGTWKVDRNENYEKFMEKMGINVVKRKLGAHDNRKLTITQEGNKFTVKESSNFRNIDVVFELGVDFAYSAADGTELTGTWTMEGNKLVGKFKRVDNGKELIAVREISGNELIQTYTYEGVEAKRIFKKE | 1.14 | 1.04 | 0.70 | 1.17 | 1.17 | –
102P, 72A (protein, listed as Rattus norvegicus, PEPTIDE (1)...(131) wild-type rat intestinal fatty acid binding protein) AFDGTWKVDRNENYEKFMEKMGINVVKRKLGAHDNLKLTITQEGNKFTVKESSNFRNIDVVFELGVDFAYSAADGTELTGTWTMEGNKLVGKFKRVDNGKEPIAVREISGNELIQTYTYEGVEAKRIFKKE | 0.49 | 0.50 | 0.39 | 0.54 | 0.56 | –
36P, 72A (protein, listed as Rattus norvegicus, PEPTIDE (1)...(131) wild-type rat intestinal fatty acid binding protein) AFDGTWKVDRNENYEKFMEKMGINVVKRKLGAHDNPKLTITQEGNKFTVKESSNFRNIDVVFELGVDFAYSAADGTELTGTWTMEGNKLVGKFKRVDNGKELIAVREISGNELIQTYTYEGVEAKRIFKKE | 0.14 | 0.32 | 0.31 | −7.45 | 0.36 | –
36Y, 72A (protein, listed as Rattus norvegicus, PEPTIDE (1)...(131) wild-type rat intestinal fatty acid binding protein) AFDGTWKVDRNENYEKFMEKMGINVVKRKLGAHDNYKLTITQEGNKFTVKESSNFRNIDVVFELGVDFAYSAADGTELTGTWTMEGNKLVGKFKRVDNGKELIAVREISGNELIQTYTYEGVEAKRIFKKE | 0.66 | 0.68 | 0.60 | 0.75 | 0.68 | –
38I3, 72A (protein, listed as Rattus norvegicus, PEPTIDE (1)...(131) wild-type rat intestinal fatty acid binding protein) AFDGTWKVDRNENYEKFMEKMGINVVKRKLGAHDNLKITITQEGNKFTVKESSNFRNIDVVFELGVDFAYSAADGTELTGTWTMEGNKLVGKFKRVDNGKELIAVREISGNELIQTYTYEGVEAKRIFKKE | 1.21 | – | 1.12 | 1.22 | 1.21 | 1.18
